According to patent publication US20100331246A1 (INDIANA UNIVERSITY RESEARCH AND TECHNOLOGY, published 2010):
Like-named read-outs stand apart in the source and are kept apart here. One block for each substance: values may come before it.

How the values were obtained:
Assay in all cases: cell-based or functional assay
GLP-1 receptor [1] = target: GLP-1 receptor (UniProt P43220)
glucagon receptor = glucagon receptor (UniProt P47871 26-477)
GLP-1 receptor [2] = target: GLP-1 receptor (UniProt P43220 24-463, limits assumed)

Chain of GLP-1 receptor (UniProt P43220) (P43220 24-463 limits assumed): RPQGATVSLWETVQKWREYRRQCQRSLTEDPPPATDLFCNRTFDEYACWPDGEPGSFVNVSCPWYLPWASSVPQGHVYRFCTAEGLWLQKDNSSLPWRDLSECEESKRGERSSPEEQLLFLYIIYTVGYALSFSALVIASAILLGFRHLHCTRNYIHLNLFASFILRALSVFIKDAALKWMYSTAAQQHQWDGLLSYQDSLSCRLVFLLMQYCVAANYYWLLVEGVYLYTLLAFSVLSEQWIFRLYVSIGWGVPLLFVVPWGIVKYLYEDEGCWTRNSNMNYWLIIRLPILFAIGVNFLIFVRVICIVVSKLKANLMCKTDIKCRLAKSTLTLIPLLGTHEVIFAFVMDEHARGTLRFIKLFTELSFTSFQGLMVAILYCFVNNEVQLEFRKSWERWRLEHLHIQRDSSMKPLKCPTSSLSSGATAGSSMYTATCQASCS

Substance: F^5V^6-O-F^7,GLP(8-36)-CEX (peptide)
- % potency with respect to parent (GLP-1 receptor [1]): 1.3%

- Glucagon IC50 (glucagon receptor): 10 to 30 nM
- Glucagon IC50 (glucagon receptor; record 2): 6 nM
- GLP-1 EC50 (GLP-1 receptor [2]): 5 to 25 nM
- GLP-1 EC50 (GLP-1 receptor [2]; record 2): 4 nM
Substance: [PLA6, D9, E16K20(lactam), D28]G(6-29) (peptide)

- Glucagon IC50 (glucagon receptor): 63 nM
Substance: [A2E3, E16K20(Lactam), D28]G(2~29) (peptide)

- Glucagon IC50 (glucagon receptor): 22 nM
- GLP-1 EC50 (GLP-1 receptor [2]): 289 nM
Substance: [PLA6, D9, E16, E24K28(lactam), D28]G(6~29) (peptide)

- Glucagon IC50 (glucagon receptor): 130 nM
- GLP-1 EC50 (GLP-1 receptor [2]): 0.2 nM
Substance: [A2E3, E16K20(Lactam), D28]G(1~29) (peptide)

Substance: G^5V^6-O-F^7,GLP(8-36)CEX (peptide)
- % potency with respect to parent (GLP-1 receptor [1]): 12%
- % potency with respect to parent, before incubation (GLP-1 receptor [1]): 10.9%
- % potency with respect to parent, prodrug incubated in PBS for 24 hrs (GLP-1 receptor [1]): 46%
- % potency with respect to parent, prodrug incubated in PBS for 168 hrs (GLP-1 receptor [1]): 95.8%

- Glucagon IC50 (glucagon receptor): 74 nM
- GLP-1 EC50 (GLP-1 receptor [2]): 239 nM
Substance: [PLA6, D9, E16, K20E24(Lactam), D28]G(6-29) (peptide)

Substance: HO-F^5F^6-O-F^7,GLP(8-36)-CEX (peptide)
- % potency with respect to parent (GLP-1 receptor [1]): 3.6%
- % potency with respect to parent, before incubation (GLP-1 receptor [1]): 3.7%
- % potency with respect to parent, prodrug incubated in PBS for 24 hrs (GLP-1 receptor [1]): 17.2%

- Glucagon IC50 (glucagon receptor): 10 to 30 nM
- GLP-1 EC50 (GLP-1 receptor [2]): 151 nM
Substance: [E9, E16K20(lactam), D28]G(4~29) (peptide)

- Glucagon IC50 (glucagon receptor): 63 nM
- Glucagon IC50 (glucagon receptor; record 2): 13 nM
- GLP-1 EC50 (GLP-1 receptor [2]): 177 nM
- GLP-1 EC50 (GLP-1 receptor [2]; record 2): 21 nM
Substance: [PLA6, D9, K12E16(Lactam), D28]G(6-29) (peptide)

- % potency with respect to parent (GLP-1 receptor [2]): 7%
Substance: HO-F5dV6-O-F7,GLP(8-36)-CEX (peptide)

Substance: (H7F),(E9Q),GLP(8-36)-CEX (peptide)
- % potency with respect to GLP-1 (GLP-1 receptor [1]): 33.3%
